Assay [1] concerns the target T1, TACI-Fc fusion protein (Homo sapiens (Human), UniProt O14836 1-159).
T1 construct: The dimeric form was enriched by size exclusion; also called full-length TACI-Fc; soluble TACI-Fc; not shown: Fc portion from vector pC4-Fc
T1 sequence: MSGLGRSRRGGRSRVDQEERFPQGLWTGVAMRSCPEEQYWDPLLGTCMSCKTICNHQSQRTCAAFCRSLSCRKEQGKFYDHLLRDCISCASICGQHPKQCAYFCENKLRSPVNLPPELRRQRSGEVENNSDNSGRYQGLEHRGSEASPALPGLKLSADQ
The assay can be described thus: BIAcore (SPR), TACI-Fc amine-coupled to CM5 chip, TNF-epsilon as analyte. A general note: Surface plasmon resonance follows binding to a sensor surface in real time, without labels.

Assay [2] addresses FLAG-epitope-tagged TNF-epsilon (in conditioned medium) (human) (UniProt O75888). In words: co-immunoprecipitation with M2 anti-FLAG antibody, Western detection with anti-FLAG antibody.

Experimental findings from EP2431054A2 (Human Genome Sciences, Inc., dated 2012) are described below.

As a reminder, the Kd is the free concentration of one partner at which half of the binding sites on the other are occupied at equilibrium, for simple one-to-one binding.

B1: TNF-epsilon, trimeric form isolated by size exclusion chromatography (ligand)
chain: AVLTQKQKNDSDVTEVMWQPALRRGRGLQAQGYGVRIQDAGVYLLYSQVLFQDVTFTMGQVVSREGQGRQETLFRCIRSMPSHPDRAYNSCYSAGVFHLHQGDILSVIIPRARAKLNLSPHGTFLGFVKL
notes: This is the protein flowed over the TACI-Fc chip
B1: in assay [1], binding was put at a Kd of 6 nM.

B2: TACI-Fc fusion protein (Fc fusion, not shown: a dimerising Fc or GST)
chain: MSGLGRSRRGGRSRVDQEERFPQGLWTGVAMRSCPEEQYWDPLLGTCMSCKTICNHQSQRTCAAFCRSLSCRKEQGKFYDHLLRDCISCASICGQHPKQCAYFCENKLRSPVNLPPELRRQRSGEVENNSDNSGRYQGLEHRGSEASPALPGLKLSADQ
Consider B2, for which, in assay [2], the percent of the TNF-epsilon present in the conditioned medium found in the immunoprecipitated TACI-Fc-TNF-epsilon complex was determined as 20%.
